Reference: patent US20040127407A1 (GREENVILLE HOSPITAL SYSTEM, published 2004)

B1: hPRL-G129R (ligand)
chain: MLPICPGGAARCQVTLRDLFDRAVVLSHYIHNLSSEMFSEFDKRYTHGRGFITKAINSCHTSSLATPEDKEQAQQMNQKDFLSLIVSILRSWNEPLYHLVTEVRGMQEAPEAILSKAVEIEEQTKRLLERMELIVSQVHPETKENEIYPVWSGLPSLQMADEESRLSAYYNLLHCLRRDSHKIDNYLKLLKCRIIHNNNC
notes: also called hPRLA; prolactin antagonist
B2: human prolactin (hPRL) (ligand, UniProt P01236 29-227, looked up)
chain: LPICPGGAARCQVTLRDLFDRAVVLSHYIHNLSSEMFSEFDKRYTHGRGFITKAINSCHTSSLATPEDKEQAQQMNQKDFLSLIVSILRSWNEPLYHLVTEVRGMQEAPEAILSKAVEIEEQTKRLLEGMELIVSQVHPETKENEIYPVWSGLPSLQMADEESRLSAYYNLLHCLRRDSHKIDNYLKLLKCRIIHNNNC
B3: G129R-endostatin fusion protein (GEFP) (other)
chain: MLPICPGGAARCQVTLRDLFDRAVVLSHYIHNLSSEMFSEFDKRYTHGRGFITKAINSCHTSSLATPEDKEQAQQMNQKDFLSLIVSILRSWNEPLYHLVTEVRGMQEAPEAILSKAVEIEEQTKRLLERMELIVSQVHPETKENEIYPVWSGLPSLQMADEESRLSAYYNLLHCLRRDSHKIDNYLKLLKCRIIHNNNCGSHSHRDFQPVLHLVALNSPLSGGMRGIRGADFQCFQQARAVGLAGTFRAFLSSRLQDLYSIVRRADRAAVPIVNLKDELLFPSWEALFSGSEGPLKPGARIFSFDGKDVLRHPTWPQKSVWHGSDPNGRRLTESYCETWRTEAPSATGQASSLLGGRLLGQSAASCHHAYIVLCIENSFMTASK
notes: The C-terminus of G129R is fused to the N-terminus of endostatin; E. coli product with an extra Met at the N-terminus; also called hPRL-G129R-Endo fusion protein

What follows are binders tested against T1, prolactin receptor (PRLR) on T-47D human breast cancer cells (human, UniProt P16471 25-622) (assay: competitive radioreceptor binding assay on T-47D cells, 125I-hPRL tracer).
T1 construct: whole, on cells; Endogenous receptor on T-47D cells; also called hPRLR; PRL receptor
T1 sequence (looked up): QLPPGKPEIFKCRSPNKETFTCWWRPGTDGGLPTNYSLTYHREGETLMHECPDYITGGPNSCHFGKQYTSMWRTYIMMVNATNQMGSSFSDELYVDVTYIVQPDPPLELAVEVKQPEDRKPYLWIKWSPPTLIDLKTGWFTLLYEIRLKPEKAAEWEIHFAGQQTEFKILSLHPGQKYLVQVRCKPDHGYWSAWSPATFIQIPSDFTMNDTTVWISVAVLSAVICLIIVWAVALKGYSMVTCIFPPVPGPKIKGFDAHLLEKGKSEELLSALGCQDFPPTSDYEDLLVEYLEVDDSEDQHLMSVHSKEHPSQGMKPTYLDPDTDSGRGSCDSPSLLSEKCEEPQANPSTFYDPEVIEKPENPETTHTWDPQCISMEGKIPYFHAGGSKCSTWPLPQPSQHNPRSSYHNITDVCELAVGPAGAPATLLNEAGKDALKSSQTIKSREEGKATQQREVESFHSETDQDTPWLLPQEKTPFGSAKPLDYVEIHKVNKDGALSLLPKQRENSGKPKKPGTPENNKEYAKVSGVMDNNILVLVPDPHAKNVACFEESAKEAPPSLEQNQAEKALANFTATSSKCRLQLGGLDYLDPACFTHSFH
Description: Radioreceptor binding assays were performed as previously described (Chen et al., 1991; Appendix B). Briefly, T-47D cells will be grown in six-well tissue culture plates until 90% confluent (˜10⁵ cells/well). Monolayers of cells were starved in serum-free RPMI-1640 medium for 2h. The cells were then incubated at room temperature for two hours in serum-free RPMI-1640 containing 8×10⁴ cpm ¹²⁵I hPRL (Specific Activity=30 μCi/μg; NEN Dupont, Boston, Mass.) with or without hPRL, hPRL-G129R, endostatin, or GEFP at various concentrations. Cells were then washed three times in serum-free RPMI-1640 and solubilized in 0.5 ml of 0.1N NaOH/1% SDS, and the bound radioactivity was determined by a Gamma counter (ICN Biomedical, model 4/600plus; Costa Mesa, Calif.).

Binding result, binds:
B1
B2
B3
